# T1: human CD20 (human, UniProt P11836 1-297)
# T1 construct: whole, on cells; cell-surface antigen; also called MS4A1
# T1 sequence (looked up): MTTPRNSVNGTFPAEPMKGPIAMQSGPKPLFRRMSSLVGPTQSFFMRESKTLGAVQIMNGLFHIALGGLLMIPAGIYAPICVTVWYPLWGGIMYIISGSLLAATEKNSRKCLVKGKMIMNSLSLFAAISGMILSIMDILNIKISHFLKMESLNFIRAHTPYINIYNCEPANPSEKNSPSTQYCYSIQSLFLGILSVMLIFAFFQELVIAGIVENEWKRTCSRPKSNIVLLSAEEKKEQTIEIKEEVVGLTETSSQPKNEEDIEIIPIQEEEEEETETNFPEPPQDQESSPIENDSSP
# Target: T1, human CD20
# Assay: worded conclusion from JNL NFAT-luciferase reporter co-culture with CD20-positive cell lines
# From the text: To evaluate the functional ability of CD20 CARs to activate JNL cells, they were co-cultured with target cancer cells to read out their activation by quantifying luciferase expression. The humanized scFv-based CARs CD20-C2H1, -C2H2, -C2H3, -C2H4, -C3H1, -C3H2, -C3H3, -C3H4, -C5H1, -C5H2, -C5H3, -C5H4, -C8H1, -C8H2, -C8H3, and -C8H4, were compared to CD20-8aBBz and CD20-3, -3m, -3J, -3H5k3, and -3H5k1. The control CARs CD20-3 and CD20-8aBBz were used in all assays to compare assay variation and/or act as a control. The EGFRvIII CAR T cells (CAR 2174, Johnson et al., Science Translational Medicine 2015) were used as non-targeting control.
# JNL CART cells were co-cultured with the Burkitt's lymphoma line Raji (RRID: CVCL_0511) and the diffuse large B cell lymphoma (DLBCL) lines Pfeiffer (RRID: CVCL_3326), HBL-1 (RRID: CVCL_4213) and TMD8 (RRID: CVCL_A442); K562 (RRID: CVCL_0004), a chronic myelogenous leukemia (CML) cell line, served as CD20-negative control. Co-cultures were set up in 384-well plates at effector-to-target (E:T) ratios of 4:1, 2:1, 1:1 and 0.5:1 and incubated for 24 h, after which the expression of luciferase by the activated JNL CAR T cells was quantified by britelite plus Reporter Gene Assay System (PerkinElmer, Waltham, Mass.). The amount of light emitted from each well (Luminescence) was a direct read-out of JNL activation by the respective CAR. […] Some of the humanized scFvs, which were fused to the transmembrane and signaling domains of the CARs, seem to have improved the efficacy of CARs to activate JNL T cells. These were CD20-C2H1, -C2H3, -C5H1, -C5H2, and -C8H3.
row,binding result,Binder
1,binds,"CD20-C8H4 CAR (other, CAR on cell surface; residues 1-21 = signal peptide) QVQLVQSGAEVKKPGSSVKVSCKASGYTFTRYNMHWVRQAPGQGLEWMGAIYPGNGDTSYSQKFKGRVTITADKSTSTAYMELSSLRSEDTAVYYCARSFFYGSSDWYFDVWGQGTTVTVSSGGGGSGGGGSGGGGSGGGGSDIQLTQSPSFLSASVGDRVTITCRASSSVNNMHWYQQKPGKAPKPLIYATSNLASGVPSRFSGSGSGTEYTLTISSLQPEDFATYYCQQWIFNPPTFGQGTKLEIKTTTPAPRPPTPAPTIASQPLSLRPEACRPAAGGAVHTRGLDFACDIYIWAPLAGTCGVLLLSLVITLYCKRGRKKLLYIFKQPFMRPVQTTQEEDGCSCRFPEEEEGGCELRVKFSRSADAPAYQQGQNQLYNELNLGRREEYDVLDKRRGRDPEMGGKPRRKNPQEGLYNELQKDKMAEAYSEIGMKGERRRGKGHDGLYQGLSTATKDTYDALHMQALPPR"
2,binds,"CD20-C5H2 CAR (other, CAR on cell surface; residues 1-21 = signal peptide) QVQLVQSGAEVKKPGASVKVSCKASGYTFTSYNMHWVRQAPGQGLEWMGAIYPGNGDTSYNPKFKGRVTMTADKSTRTAYMELSSLRSEDTAVYYCARSYFYGSSSWYFDVWGQGTTVTVSSGGGGSGGGGSGGGGSGGGGSDIQLTQSPSFLSASVGDRVTITCRASSSVSSMHWYQQKPGKAPKPLIFATSNLASGVPSRFSGSGSGTEYTLTISSLQPEDFATYYCQQWIFNPPTFGGGTKVEIKTTTPAPRPPTPAPTIASQPLSLRPEACRPAAGGAVHTRGLDFACDIYIWAPLAGTCGVLLLSLVITLYCKRGRKKLLYIFKQPFMRPVQTTQEEDGCSCRFPEEEEGGCELRVKFSRSADAPAYQQGQNQLYNELNLGRREEYDVLDKRRGRDPEMGGKPRRKNPQEGLYNELQKDKMAEAYSEIGMKGERRRGKGHDGLYQGLSTATKDTYDALHMQALPPR"
3,binds,"CD20-C8H3 CAR (other, CAR on cell surface; residues 1-21 = signal peptide) QVQLVQSGAEVKKPGSSVKVSCKASGYTFTRYNMHWVRQAPGQGLEWMGAIYPGNGDTSYSQKFKGRVTITADKSTSTAYMELSSLRSEDTAVYYCARSFFYGSSDWYFDVWGQGTTVTVSSGGGGSGGGGSGGGGSGGGGSEIVLTQSPDFQSVTPKEKVTITCRASSSVNNMHWYQQKPDQSPKPLIYATSNLASGVPSRFSGSGSGTDYTLTINSLEAEDAATYYCQQWIFNPPTFGQGTKLEIKTTTPAPRPPTPAPTIASQPLSLRPEACRPAAGGAVHTRGLDFACDIYIWAPLAGTCGVLLLSLVITLYCKRGRKKLLYIFKQPFMRPVQTTQEEDGCSCRFPEEEEGGCELRVKFSRSADAPAYQQGQNQLYNELNLGRREEYDVLDKRRGRDPEMGGKPRRKNPQEGLYNELQKDKMAEAYSEIGMKGERRRGKGHDGLYQGLSTATKDTYDALHMQALPPR"
4,binds,"CD20-C8H2 CAR (other, CAR on cell surface; residues 1-21 = signal peptide) QVQLVQSGAEVKKPGASVKVSCKASGYTFTRYNMHWVRQAPGQRLEWMGAIYPGNGDTSYSQKFKGRVTITADKSASTAYMELSSLRSEDTAVYYCARSFFYGSSDWYFDVWGQGTTVTVSSGGGGSGGGGSGGGGSGGGGSDIQLTQSPSFLSASVGDRVTITCRASSSVNNMHWYQQKPGKAPKPLIYATSNLASGVPSRFSGSGSGTEYTLTISSLQPEDFATYYCQQWIFNPPTFGQGTKLEIKTTTPAPRPPTPAPTIASQPLSLRPEACRPAAGGAVHTRGLDFACDIYIWAPLAGTCGVLLLSLVITLYCKRGRKKLLYIFKQPFMRPVQTTQEEDGCSCRFPEEEEGGCELRVKFSRSADAPAYQQGQNQLYNELNLGRREEYDVLDKRRGRDPEMGGKPRRKNPQEGLYNELQKDKMAEAYSEIGMKGERRRGKGHDGLYQGLSTATKDTYDALHMQALPPR"
5,binds,"CD20-C5H3 CAR (other, CAR on cell surface; residues 1-21 = signal peptide) QVQLVQSGAEVKKPGSSVKVSCKASGYTFTSYNMHWVRQAPGQGLEWMGAIYPGNGDTSYNPKFKGRVTITADKSTRTAYMELSSLRSEDTAVYYCARSYFYGSSSWYFDVWGQGTTVTVSSGGGGSGGGGSGGGGSGGGGSEIVLTQSPATLSLSPGERATLSCRASSSVSSMHWYQQKPGQAPRPLIFATSNLASGIPARFSGSGSGTDYTLTISSLEPEDAAVYYCQQWIFNPPTFGGGTKVEIKTTTPAPRPPTPAPTIASQPLSLRPEACRPAAGGAVHTRGLDFACDIYIWAPLAGTCGVLLLSLVITLYCKRGRKKLLYIFKQPFMRPVQTTQEEDGCSCRFPEEEEGGCELRVKFSRSADAPAYQQGQNQLYNELNLGRREEYDVLDKRRGRDPEMGGKPRRKNPQEGLYNELQKDKMAEAYSEIGMKGERRRGKGHDGLYQGLSTATKDTYDALHMQALPPR"
6,binds,"CD20-C2H2 CAR (other, CAR on cell surface; residues 1-21 = signal peptide) QVQLVQSGAEVKKPGSSVKVSCKASGYTFTNYWMHWVRQAPGQGLEWMGFITPTTGYPEYNQKFKDRVTITADKSTSTAYMELSSLRSEDTAVYYCARRKVGKGVYYALDYWGQGTTVTVSSGGGGSGGGGSGGGGSGGGGSDIQMTQSPSSLSASVGDRVTITCRASGNIHNYLAWYQQKPGKVPKLLIYNTKTLADGVPSRFSGSGSGTDYTLTISSLQPEDVATYYCQHFWSSPWTFGGGTKVEIKTTTPAPRPPTPAPTIASQPLSLRPEACRPAAGGAVHTRGLDFACDIYIWAPLAGTCGVLLLSLVITLYCKRGRKKLLYIFKQPFMRPVQTTQEEDGCSCRFPEEEEGGCELRVKFSRSADAPAYQQGQNQLYNELNLGRREEYDVLDKRRGRDPEMGGKPRRKNPQEGLYNELQKDKMAEAYSEIGMKGERRRGKGHDGLYQGLSTATKDTYDALHMQALPPR"

# Second part, the binder before the results:
row,Binder,binding result
1,"CD20-C5H4 CAR (other, CAR on cell surface; residues 1-21 = signal peptide) QVQLVQSGAEVKKPGSSVKVSCKASGYTFTSYNMHWVRQAPGQGLEWMGAIYPGNGDTSYNPKFKGRVTITADKSTRTAYMELSSLRSEDTAVYYCARSYFYGSSSWYFDVWGQGTTVTVSSGGGGSGGGGSGGGGSGGGGSDIQLTQSPSFLSASVGDRVTITCRASSSVSSMHWYQQKPGKAPKPLIFATSNLASGVPSRFSGSGSGTEYTLTISSLQPEDFATYYCQQWIFNPPTFGGGTKVEIKTTTPAPRPPTPAPTIASQPLSLRPEACRPAAGGAVHTRGLDFACDIYIWAPLAGTCGVLLLSLVITLYCKRGRKKLLYIFKQPFMRPVQTTQEEDGCSCRFPEEEEGGCELRVKFSRSADAPAYQQGQNQLYNELNLGRREEYDVLDKRRGRDPEMGGKPRRKNPQEGLYNELQKDKMAEAYSEIGMKGERRRGKGHDGLYQGLSTATKDTYDALHMQALPPR",binds
2,"CD20-C8H1 CAR (other, CAR on cell surface; residues 1-21 = signal peptide) QVQLVQSGAEVKKPGASVKVSCKASGYTFTRYNMHWVRQAPGQRLEWMGAIYPGNGDTSYSQKFKGRVTITADKSASTAYMELSSLRSEDTAVYYCARSFFYGSSDWYFDVWGQGTTVTVSSGGGGSGGGGSGGGGSGGGGSEIVLTQSPDFQSVTPKEKVTITCRASSSVNNMHWYQQKPDQSPKPLIYATSNLASGVPSRFSGSGSGTDYTLTINSLEAEDAATYYCQQWIFNPPTFGQGTKLEIKTTTPAPRPPTPAPTIASQPLSLRPEACRPAAGGAVHTRGLDFACDIYIWAPLAGTCGVLLLSLVITLYCKRGRKKLLYIFKQPFMRPVQTTQEEDGCSCRFPEEEEGGCELRVKFSRSADAPAYQQGQNQLYNELNLGRREEYDVLDKRRGRDPEMGGKPRRKNPQEGLYNELQKDKMAEAYSEIGMKGERRRGKGHDGLYQGLSTATKDTYDALHMQALPPR",binds
3,"CD20-C5H1 CAR (other, CAR on cell surface; residues 1-21 = signal peptide) QVQLVQSGAEVKKPGASVKVSCKASGYTFTSYNMHWVRQAPGQGLEWMGAIYPGNGDTSYNPKFKGRVTMTADKSTRTAYMELSSLRSEDTAVYYCARSYFYGSSSWYFDVWGQGTTVTVSSGGGGSGGGGSGGGGSGGGGSEIVLTQSPATLSLSPGERATLSCRASSSVSSMHWYQQKPGQAPRPLIFATSNLASGIPARFSGSGSGTDYTLTISSLEPEDAAVYYCQQWIFNPPTFGGGTKVEIKTTTPAPRPPTPAPTIASQPLSLRPEACRPAAGGAVHTRGLDFACDIYIWAPLAGTCGVLLLSLVITLYCKRGRKKLLYIFKQPFMRPVQTTQEEDGCSCRFPEEEEGGCELRVKFSRSADAPAYQQGQNQLYNELNLGRREEYDVLDKRRGRDPEMGGKPRRKNPQEGLYNELQKDKMAEAYSEIGMKGERRRGKGHDGLYQGLSTATKDTYDALHMQALPPR",binds
4,"CD20-C2H1 CAR (other, CAR on cell surface) QVQLVQSGAEVKKPGASVKVSCKASGYTFTNYWMHWVRQAPGQGLEWMGFITPTTGYPEYNQKFKDRVTMTADKSTSTAYMELSSLRSEDTAVYYCARRKVGKGVYYALDYWGQGTTVTVSSGGGGSGGGGSGGGGSGGGGSDIQMTQSPSSLSASVGDRVTITCRASGNIHNYLAWYQQKPGKVPKLLIYNTKTLADGVPSRFSGSGSGTDYTLTISSLQPEDVATYYCQHFWSSPWTFGGGTKVEIKTTTPAPRPPTPAPTIASQPLSLRPEACRPAAGGAVHTRGLDFACDIYIWAPLAGTCGVLLLSLVITLYCKRGRKKLLYIFKQPFMRPVQTTQEEDGCSCRFPEEEEGGCELRVKFSRSADAPAYQQGQNQLYNELNLGRREEYDVLDKRRGRDPEMGGKPRRKNPQEGLYNELQKDKMAEAYSEIGMKGERRRGKGHDGLYQGLSTATKDTYDALHMQALPPR",binds

# Source: patent publication US20180125892A1 (published 2018)
